Results published in publication PMC4888843 (Genes & Development, 2016).

B1: mouse Bcl-xLΔC24 (domain or fragment)
chain: MSQSNRELVVDFLSYKLSQKGYSWSQFSDVEENRTEAPEETEAERETPSAINGNPSWHLADSPAVNGATGHSSSLDAREVIPMAAVKQALREAGDEFELRYRRAFSDLTSQLHITPGTAYQSFEQVVNELFRDGVNWGRIVAFFSFGGALCVESVDKEMQVLVSRIASWMATYLNDHLEPWIQENGGWDTFVDLYGNNAAAESRKGQER
B2: loop-deleted human BCL-XL (Δ27–82, ΔC24) (domain or fragment)
chain: MSQSNRELVVDFLSYKLSQKGYSWSQMAAVKQALREAGDEFELRYRRAFSDLTSQLHITPGTAYQSFEQVVNELFRDGVNWGRIVAFFSFGGALCVESVDKEMQVLVSRIAAWMATYLNDHLEPWIQENGGWDTFVELYGNNAAAESRKGQER

Assays:
human BCL-XLΔC24 = human BCL-XLΔC24 (human, UniProt Q07817-1 1-209); assay: ELISA
[1] = biological target: B2; assay: crystal structure
[2] = biological target: BIM BH3 synthetic peptide; assay: SPR
crystal structure = biological target: the molecule itself; assay: crystal structure
mouse Bcl-xLΔC24 = biological target: B1; assay: SPR
mouse Bcl-xL Y101FΔC24 = mouse Bcl-xL Y101FΔC24 (mouse, UniProt Q64373-1 1-209, Y101F)
[3] = biological target: mouse Bcl-xL Y101F/Q111AΔC24 (mouse, UniProt Q64373-1 1-209, Y101F | Q111A)

PSSTMGQVGRQLAIIEDDINRRYDSE [phage-displayed human BAK BH3 peptide G82E]
IC50 (human BCL-XLΔC24): > 10 µM

PSSTMGQVGRALAIIGDDINRRYDSE [phage-displayed human BAK BH3 peptide Q77A]
fold reduction in binding against wild-type BAK BH3 (from IC50) (human BCL-XLΔC24): 8 fold

PSSTMGQVGAQLAIIGDDINRRYDSE [phage-displayed human BAK BH3 peptide R76A]
fold reduction in binding against wild-type BAK BH3 (from IC50) (human BCL-XLΔC24): 4 fold

LPLQPSSTMGQVGRQLAIIGDDINRRYDSEFQTM [hBAK BH3 synthetic peptide]
binding result [1]: binds

B1
binding result [2]: binds

B2
binding result (crystal structure): binds

LPLEPNSILGQVGRLLALIGDDINRRYDTEFQNL [mBak Q75L BH3 synthetic peptide]
binding result [1]: binds
fold weaker binding than wild-type Bak BH3 (mouse Bcl-xLΔC24): ~7 fold

LPLEPNSILGQVGRQLALIGDDINRRYDTEFQNL [mBak BH3 synthetic peptide]
fold weaker binding than wild-type Bcl-xL (mouse Bcl-xL Y101FΔC24): ~3.5 fold
fold weaker binding than wild-type Bcl-xL [3]: ~3.5 fold
